Each sequence was assayed against FGFR1 (UniProt P11362) (assay: phosphorylation enrichment, bacterial display (enrichment ratio); higher = better substrate or ligand; peptides without Tyr show the background).
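Further: 11-residue human phosphosite peptides and single-mutation variants displayed on the E. coli surface, counted by deep sequencing, each peptide's frequency after selection divided by its frequency in the unselected input library; frequency after pTyr selection over input frequency; kinase dosed for 20-30% of maximal phosphorylation in three min.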

Chain of FGFR1 (P11362 whole entry, looked up): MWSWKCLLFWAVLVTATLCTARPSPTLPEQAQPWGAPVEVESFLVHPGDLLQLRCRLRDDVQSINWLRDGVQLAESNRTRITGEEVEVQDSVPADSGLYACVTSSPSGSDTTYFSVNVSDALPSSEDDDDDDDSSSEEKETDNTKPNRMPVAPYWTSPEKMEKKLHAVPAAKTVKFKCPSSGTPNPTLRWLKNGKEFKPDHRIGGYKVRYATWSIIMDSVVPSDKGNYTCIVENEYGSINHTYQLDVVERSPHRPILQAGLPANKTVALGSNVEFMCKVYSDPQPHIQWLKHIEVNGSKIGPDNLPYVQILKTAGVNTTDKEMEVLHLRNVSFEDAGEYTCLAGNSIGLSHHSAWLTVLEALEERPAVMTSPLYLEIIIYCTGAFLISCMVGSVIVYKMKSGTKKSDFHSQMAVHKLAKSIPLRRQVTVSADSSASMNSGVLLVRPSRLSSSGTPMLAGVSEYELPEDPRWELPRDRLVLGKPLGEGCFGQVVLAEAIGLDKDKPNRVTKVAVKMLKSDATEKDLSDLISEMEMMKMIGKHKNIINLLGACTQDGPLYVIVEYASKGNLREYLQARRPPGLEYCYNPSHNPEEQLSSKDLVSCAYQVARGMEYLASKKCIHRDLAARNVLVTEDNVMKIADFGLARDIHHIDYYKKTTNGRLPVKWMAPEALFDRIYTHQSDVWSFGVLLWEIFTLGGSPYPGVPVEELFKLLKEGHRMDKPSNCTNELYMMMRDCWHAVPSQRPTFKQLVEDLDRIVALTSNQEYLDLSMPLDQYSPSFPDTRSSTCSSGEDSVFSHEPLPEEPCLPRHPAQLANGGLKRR

Going from CQKRKYIEIDS [SDAD1_Y580_S575C] to GRLFAYPDTHR [CAT_Y358], the phosphorylation enrichment falls from 0.55 to 0.44.

First: PAGSGYPAFLG [ATP6V1A_Y374_D371G_YF]
Second: QKMFDYLKEKK [RYR2_Y3780_L3778F]
The phosphorylation enrichment of the first is higher: 0.737 for the first, 0.459 for the second.

First: CTTIHYNYMCN [TP53_Y234]
Second: TKQLTYEEQFL [PIK3C3_Y310_D314Y_YF]
The phosphorylation enrichment of the first is higher: 0.539 for the first, 0.497 for the second.

Going from MPLTEYLKQIK [CNGB3_Y200_R203Q] to LVQAEYWHDPI [PPT1_Y185], the phosphorylation enrichment rises from 0.533 to 3.89.

Going from AFLLLCFNDTH [BMP15_Y235_Y235C] to RGGWVYVLHPT [TRMT61A_Y67], the phosphorylation enrichment rises from 0.501 to 0.853.

Compared with LGSVVYAQSKE [KCNQ2_Y226_H228Q], NAPNSYGRRPT [CDKN2A_Y44_I49T] is lower in phosphorylation enrichment: 0.852 for the first, 0.343 for the second.

Compared with EASEQYLTKAS [NRCAM_Y739], FLAVGYHMPHI [IDS_Y225_K227M] is lower in phosphorylation enrichment: 0.571 for the first, 0.485 for the second.

Compared with PVQAVYQKVVA [HBB_Y131_A130V], RAFRRYLLKQK [SCN2A_Y1919_YF] is higher in phosphorylation enrichment: 0.421 for the first, 0.617 for the second.

Going from CTLTHYKSAVK [ASNS_Y555_R550C] to RLLRGYRQDAF [HLA-A_Y137_F133L_YF], the phosphorylation enrichment rises from 0.514 to 0.547.

Going from FDNPIYQKTTE [LDLR_Y828_V827I] to AGTILYHAHLG [ASS1_Y291_D296G], the phosphorylation enrichment falls from 0.543 to 0.517.

Compared with FFLGKYLQEVL [KLB_Y910_YF], EPSVDCCVVKI [CAD_Y735_Y735C] is lower in phosphorylation enrichment: 0.436 for the first, 0.432 for the second.

Going from SLIDGYFRLTA [JAK2_Y372_YF] to AAAAVYTFLPD [MYORG_Y36_M35V], the phosphorylation enrichment rises from 0.605 to 12.4.

Compared with SSSNPYSTVTV [ACTN2_Y599_M604V], CLSHCYFSQIR [MCM3AP_Y873_L870S] is lower in phosphorylation enrichment: 0.745 for the first, 0.573 for the second.

Going from LDVGEYCVPRG [BEX1_Y43_A40V] to TEIGQYGNGLK [MORC2_Y100_Q96E], the phosphorylation enrichment falls from 0.982 to 0.404.

First: AATTAYSKPKR [MAP3K7_Y405]
Second: STGWSYAGVAV [KLHL3_Y577_R575W]
The phosphorylation enrichment of the first is lower: 0.337 for the first, 0.484 for the second.

Going from TLMNAYSSRSH [KIF11_Y231] to VHSGTYQVMVR [MYBPC3_Y1043_T1046M], the phosphorylation enrichment rises from 0.449 to 0.456.

For CTTIHYNFMCD [TP53_Y234_N239D_YF], the phosphorylation enrichment was 0.399.

These sequences were tested on Fer (mouse) in the same assay as above.

Going from CQKRKYIEIDS [SDAD1_Y580_S575C] to GRLFAYPDTHR [CAT_Y358], the phosphorylation enrichment rises from 0.431 to 0.476.

Going from PAGSGYPAFLG [ATP6V1A_Y374_D371G_YF] to QKMFDYLKEKK [RYR2_Y3780_L3778F], the phosphorylation enrichment rises from 0.512 to 0.574.

First: CTTIHYNYMCN [TP53_Y234]
Second: TKQLTYEEQFL [PIK3C3_Y310_D314Y_YF]
The phosphorylation enrichment of the first is lower: 0.557 for the first, 1.03 for the second.

Compared with MPLTEYLKQIK [CNGB3_Y200_R203Q], LVQAEYWHDPI [PPT1_Y185] is higher in phosphorylation enrichment: 0.451 for the first, 0.644 for the second.

Going from AFLLLCFNDTH [BMP15_Y235_Y235C] to RGGWVYVLHPT [TRMT61A_Y67], the phosphorylation enrichment rises from 0.663 to 0.766.

First: LGSVVYAQSKE [KCNQ2_Y226_H228Q]
Second: NAPNSYGRRPT [CDKN2A_Y44_I49T]
The phosphorylation enrichment of the first is higher: 0.99 for the first, 0.38 for the second.

First: EASEQYLTKAS [NRCAM_Y739]
Second: FLAVGYHMPHI [IDS_Y225_K227M]
The phosphorylation enrichment of the first is higher: 0.463 for the first, 0.402 for the second.

Going from PVQAVYQKVVA [HBB_Y131_A130V] to RAFRRYLLKQK [SCN2A_Y1919_YF], the phosphorylation enrichment falls from 1.14 to 0.675.

Compared with CTLTHYKSAVK [ASNS_Y555_R550C], RLLRGYRQDAF [HLA-A_Y137_F133L_YF] is higher in phosphorylation enrichment: 0.51 for the first, 0.659 for the second.

Compared with FDNPIYQKTTE [LDLR_Y828_V827I], AGTILYHAHLG [ASS1_Y291_D296G] is lower in phosphorylation enrichment: 1.59 for the first, 0.495 for the second.

Going from FFLGKYLQEVL [KLB_Y910_YF] to EPSVDCCVVKI [CAD_Y735_Y735C], the phosphorylation enrichment falls from 0.441 to 0.411.

Going from SLIDGYFRLTA [JAK2_Y372_YF] to AAAAVYTFLPD [MYORG_Y36_M35V], the phosphorylation enrichment rises from 0.514 to 1.85.

Going from SSSNPYSTVTV [ACTN2_Y599_M604V] to CLSHCYFSQIR [MCM3AP_Y873_L870S], the phosphorylation enrichment falls from 9.71 to 0.388.

Compared with LDVGEYCVPRG [BEX1_Y43_A40V], TEIGQYGNGLK [MORC2_Y100_Q96E] is lower in phosphorylation enrichment: 0.842 for the first, 0.394 for the second.

Compared with AATTAYSKPKR [MAP3K7_Y405], STGWSYAGVAV [KLHL3_Y577_R575W] is higher in phosphorylation enrichment: 0.317 for the first, 0.616 for the second.

First: TLMNAYSSRSH [KIF11_Y231]
Second: VHSGTYQVMVR [MYBPC3_Y1043_T1046M]
The phosphorylation enrichment of the first is higher: 0.514 for the first, 0.343 for the second.

Work on CTTIHYNFMCD [TP53_Y234_N239D_YF] yielded a phosphorylation enrichment of 0.49.

The sequences below were run against FGFR3 (UniProt P22607) in the same assay as above.
Chain of FGFR3 (P22607 whole entry, looked up): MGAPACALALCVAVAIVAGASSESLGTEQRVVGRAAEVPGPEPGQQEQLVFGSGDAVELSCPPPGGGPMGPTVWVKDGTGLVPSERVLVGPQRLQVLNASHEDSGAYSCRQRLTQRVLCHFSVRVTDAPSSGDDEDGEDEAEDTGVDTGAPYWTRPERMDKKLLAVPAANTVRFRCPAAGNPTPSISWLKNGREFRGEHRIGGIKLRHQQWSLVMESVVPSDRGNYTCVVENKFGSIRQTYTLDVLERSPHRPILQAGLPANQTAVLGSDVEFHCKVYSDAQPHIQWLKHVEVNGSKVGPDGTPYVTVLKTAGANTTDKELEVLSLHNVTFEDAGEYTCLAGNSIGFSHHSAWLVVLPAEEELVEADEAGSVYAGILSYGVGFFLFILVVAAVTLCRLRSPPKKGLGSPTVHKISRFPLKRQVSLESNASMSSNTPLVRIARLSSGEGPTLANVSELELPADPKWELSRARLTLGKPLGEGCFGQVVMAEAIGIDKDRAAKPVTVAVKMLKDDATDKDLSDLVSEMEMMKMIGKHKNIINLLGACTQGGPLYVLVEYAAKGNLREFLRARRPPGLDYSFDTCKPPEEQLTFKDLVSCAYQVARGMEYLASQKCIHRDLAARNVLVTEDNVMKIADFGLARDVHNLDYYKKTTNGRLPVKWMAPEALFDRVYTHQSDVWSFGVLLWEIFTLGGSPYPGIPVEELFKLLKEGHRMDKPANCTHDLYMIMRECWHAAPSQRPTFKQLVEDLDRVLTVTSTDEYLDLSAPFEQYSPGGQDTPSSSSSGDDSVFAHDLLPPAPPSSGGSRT

First: CQKRKYIEIDS [SDAD1_Y580_S575C]
Second: GRLFAYPDTHR [CAT_Y358]
The phosphorylation enrichment of the first is higher: 0.6 for the first, 0.538 for the second.

Going from PAGSGYPAFLG [ATP6V1A_Y374_D371G_YF] to QKMFDYLKEKK [RYR2_Y3780_L3778F], the phosphorylation enrichment falls from 0.794 to 0.595.

Going from CTTIHYNYMCN [TP53_Y234] to TKQLTYEEQFL [PIK3C3_Y310_D314Y_YF], the phosphorylation enrichment falls from 0.692 to 0.65.

Compared with MPLTEYLKQIK [CNGB3_Y200_R203Q], LVQAEYWHDPI [PPT1_Y185] is higher in phosphorylation enrichment: 0.526 for the first, 2.98 for the second.

Compared with AFLLLCFNDTH [BMP15_Y235_Y235C], RGGWVYVLHPT [TRMT61A_Y67] is higher in phosphorylation enrichment: 0.918 for the first, 1.03 for the second.

Going from LGSVVYAQSKE [KCNQ2_Y226_H228Q] to NAPNSYGRRPT [CDKN2A_Y44_I49T], the phosphorylation enrichment falls from 1.39 to 0.499.

First: EASEQYLTKAS [NRCAM_Y739]
Second: FLAVGYHMPHI [IDS_Y225_K227M]
The phosphorylation enrichment of the first is lower: 0.556 for the first, 0.562 for the second.

Going from PVQAVYQKVVA [HBB_Y131_A130V] to RAFRRYLLKQK [SCN2A_Y1919_YF], the phosphorylation enrichment rises from 0.617 to 0.865.

First: CTLTHYKSAVK [ASNS_Y555_R550C]
Second: RLLRGYRQDAF [HLA-A_Y137_F133L_YF]
The phosphorylation enrichment of the first is lower: 0.529 for the first, 0.676 for the second.

Going from FDNPIYQKTTE [LDLR_Y828_V827I] to AGTILYHAHLG [ASS1_Y291_D296G], the phosphorylation enrichment rises from 0.49 to 0.625.

Compared with FFLGKYLQEVL [KLB_Y910_YF], EPSVDCCVVKI [CAD_Y735_Y735C] is higher in phosphorylation enrichment: 0.498 for the first, 0.586 for the second.

Compared with SLIDGYFRLTA [JAK2_Y372_YF], AAAAVYTFLPD [MYORG_Y36_M35V] is higher in phosphorylation enrichment: 0.875 for the first, 10.6 for the second.

Going from SSSNPYSTVTV [ACTN2_Y599_M604V] to CLSHCYFSQIR [MCM3AP_Y873_L870S], the phosphorylation enrichment rises from 0.483 to 0.607.

Going from LDVGEYCVPRG [BEX1_Y43_A40V] to TEIGQYGNGLK [MORC2_Y100_Q96E], the phosphorylation enrichment falls from 1.23 to 0.499.

Going from AATTAYSKPKR [MAP3K7_Y405] to STGWSYAGVAV [KLHL3_Y577_R575W], the phosphorylation enrichment rises from 0.37 to 0.549.

Compared with TLMNAYSSRSH [KIF11_Y231], VHSGTYQVMVR [MYBPC3_Y1043_T1046M] is higher in phosphorylation enrichment: 0.44 for the first, 0.468 for the second.

With CTTIHYNFMCD [TP53_Y234_N239D_YF] the phosphorylation enrichment was 0.674.

These sequences were tested on AncSZ in the same assay as above.

First: CQKRKYIEIDS [SDAD1_Y580_S575C]
Second: GRLFAYPDTHR [CAT_Y358]
The phosphorylation enrichment of the first is higher: 0.657 for the first, 0.641 for the second.

Compared with PAGSGYPAFLG [ATP6V1A_Y374_D371G_YF], QKMFDYLKEKK [RYR2_Y3780_L3778F] is lower in phosphorylation enrichment: 1 for the first, 0.797 for the second.

First: CTTIHYNYMCN [TP53_Y234]
Second: TKQLTYEEQFL [PIK3C3_Y310_D314Y_YF]
The phosphorylation enrichment of the first is lower: 0.853 for the first, 1.1 for the second.

Compared with MPLTEYLKQIK [CNGB3_Y200_R203Q], LVQAEYWHDPI [PPT1_Y185] is higher in phosphorylation enrichment: 0.83 for the first, 1.48 for the second.

First: AFLLLCFNDTH [BMP15_Y235_Y235C]
Second: RGGWVYVLHPT [TRMT61A_Y67]
The phosphorylation enrichment of the first is lower: 1.42 for the first, 1.8 for the second.

Going from LGSVVYAQSKE [KCNQ2_Y226_H228Q] to NAPNSYGRRPT [CDKN2A_Y44_I49T], the phosphorylation enrichment falls from 1.61 to 0.784.

First: EASEQYLTKAS [NRCAM_Y739]
Second: FLAVGYHMPHI [IDS_Y225_K227M]
The phosphorylation enrichment of the first is lower: 0.711 for the first, 0.761 for the second.

Going from PVQAVYQKVVA [HBB_Y131_A130V] to RAFRRYLLKQK [SCN2A_Y1919_YF], the phosphorylation enrichment rises from 0.373 to 0.708.

First: CTLTHYKSAVK [ASNS_Y555_R550C]
Second: RLLRGYRQDAF [HLA-A_Y137_F133L_YF]
The phosphorylation enrichment of the first is lower: 0.807 for the first, 1.22 for the second.

First: FDNPIYQKTTE [LDLR_Y828_V827I]
Second: AGTILYHAHLG [ASS1_Y291_D296G]
The phosphorylation enrichment of the first is higher: 0.833 for the first, 0.819 for the second.

Going from FFLGKYLQEVL [KLB_Y910_YF] to EPSVDCCVVKI [CAD_Y735_Y735C], the phosphorylation enrichment rises from 0.963 to 1.07.

Compared with SLIDGYFRLTA [JAK2_Y372_YF], AAAAVYTFLPD [MYORG_Y36_M35V] is higher in phosphorylation enrichment: 1.1 for the first, 1.48 for the second.

First: SSSNPYSTVTV [ACTN2_Y599_M604V]
Second: CLSHCYFSQIR [MCM3AP_Y873_L870S]
The phosphorylation enrichment of the first is lower: 0.432 for the first, 0.727 for the second.

Going from LDVGEYCVPRG [BEX1_Y43_A40V] to TEIGQYGNGLK [MORC2_Y100_Q96E], the phosphorylation enrichment falls from 5.36 to 0.522.

Going from AATTAYSKPKR [MAP3K7_Y405] to STGWSYAGVAV [KLHL3_Y577_R575W], the phosphorylation enrichment rises from 0.404 to 0.929.

Going from TLMNAYSSRSH [KIF11_Y231] to VHSGTYQVMVR [MYBPC3_Y1043_T1046M], the phosphorylation enrichment rises from 0.675 to 0.711.

For CTTIHYNFMCD [TP53_Y234_N239D_YF], the phosphorylation enrichment was 0.985.
